The text below walks through data of publication PMC11791991 (2024).

Ends that are not written are not given here.

This assay concerns the target T1, LZ-Y.
T1 chain: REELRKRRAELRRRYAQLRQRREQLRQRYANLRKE
The experiment in a line: QRET time-resolved luminescence.

A word on the Kd: it is the equilibrium constant for the complex coming apart. For the molecule KDTLQAETDQLEDEKSALQTEIANLLKEKEKLEFIL (also: nonadentate Eu(III) chelate label, position not given here) [EuLZ (leucine zipper peptide LZ, Eu-chelate labeled)], the Kd is 21 nM.
